Experimental data published in the supplement of paper PMC9112550, “Optimization of the antimicrobial peptide Bac7 by deep mutational scanning” (BMC Biology, 2022).

tested on: Escherichia coli TOP10; test: shrunken log2 fold change of peptide-encoding DNA abundance (4.5 h post-induction vs induction); higher = less antimicrobial activity (less host growth inhibition); details: time post-induction: 4.5 h; library: site-saturation at positions 5, 18, 19, 20
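Also: peptides expressed intracellularly from a pBAD plasmid library in pooled LB shake-flask culture, induced with 0.3% L-arabinose, DNA abundance read by NGS, three biological replicates, DESeq2 with apeglm shrinkage.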

Going from RRIRVRPPRLPRPRPRPYNIPRP to RRIRYRPPRLPRPRPRPEMYPRP, the “shrunken log2 fold change” value rises from -1.26 to -0.0203.

Going from RRIRPRPPRLPRPRPRPKMEPRP to RRIRQRPPRLPRPRPRPMYHPRP, the “shrunken log2 fold change” value falls from -0.0537 to -0.477.

RRIRNRPPRLPRPRPRPIDTPRP and RRIRDRPPRLPRPRPRPIQSPRP are within 0.2 log units of each other in “shrunken log2 fold change” value: -0.0154 for the first, -0.0949 for the second.

Going from RRIRRRPPRLPRPRPRPYNSPRP to RRIRPRPPRLPRPRPRPSLLPRP, the “shrunken log2 fold change” value rises from -0.573 to -0.205.

Compared with RRIRERPPRLPRPRPRPPDDPRP, RRIRSRPPRLPRPRPRPFSLPRP is lower in “shrunken log2 fold change” value: 0.103 for the first, -0.506 for the second.

Going from RRIRYRPPRLPRPRPRPHRKPRP to RRIRARPPRLPRPRPRPMVWPRP, the “shrunken log2 fold change” value rises from -0.501 to 1.07.

RRIRGRPPRLPRPRPRPRCKPRP and RRIRERPPRLPRPRPRPPRVPRP are within 0.2 log units of each other in “shrunken log2 fold change” value: 0.476 for the first, 0.342 for the second.

First: RRIRQRPPRLPRPRPRPYFIPRP
Second: RRIRRRPPRLPRPRPRPEPKPRP
The “shrunken log2 fold change” value of the first is lower: -1.23 for the first, 1.46 for the second.

Compared with RRIRLRPPRLPRPRPRPKFDPRP, RRIRTRPPRLPRPRPRPLAYPRP is lower in “shrunken log2 fold change” value: -0.115 for the first, -0.982 for the second.

Going from RRIRWRPPRLPRPRPRPWINPRP to RRIRSRPPRLPRPRPRPVHAPRP, the “shrunken log2 fold change” value rises from -0.506 to 0.214.

RRIRERPPRLPRPRPRPEKRPRP and RRIRIRPPRLPRPRPRPGTAPRP are within 0.2 log units of each other in “shrunken log2 fold change” value: -0.0657 for the first, -0.0164 for the second.

Compared with RRIRIRPPRLPRPRPRPAPGPRP, RRIRYRPPRLPRPRPRPLTIPRP is lower in “shrunken log2 fold change” value: 0.371 for the first, -0.0265 for the second.

RRIRARPPRLPRPRPRPWFEPRP and RRIRVRPPRLPRPRPRPMNAPRP are within 0.2 log units of each other in “shrunken log2 fold change” value: -0.0275 for the first, 0.154 for the second.

RRIRHRPPRLPRPRPRPSEVPRP and RRIRDRPPRLPRPRPRPWIYPRP are within 0.2 log units of each other in “shrunken log2 fold change” value: -0.277 for the first, -0.304 for the second.

Compared with RRIRARPPRLPRPRPRPYDVPRP, RRIRNRPPRLPRPRPRPFNQPRP is lower in “shrunken log2 fold change” value: -0.0868 for the first, -0.408 for the second.

RRIRDRPPRLPRPRPRPVDEPRP and RRIRNRPPRLPRPRPRPEWVPRP are within 0.2 log units of each other in “shrunken log2 fold change” value: -0.023 for the first, 0.0314 for the second.

RRIRRRPPRLPRPRPRPHLFPRP and RRIRQRPPRLPRPRPRPNYAPRP are within 0.2 log units of each other in “shrunken log2 fold change” value: 0.0328 for the first, -0.0208 for the second.

Going from RRIRKRPPRLPRPRPRPRLIPRP to RRIRPRPPRLPRPRPRPRAVPRP, the “shrunken log2 fold change” value rises from 0.234 to 1.68.

RRIRIRPPRLPRPRPRPQVLPRP and RRIRQRPPRLPRPRPRPNKIPRP are within 0.2 log units of each other in “shrunken log2 fold change” value: -0.338 for the first, -0.388 for the second.

Compared with RRIRIRPPRLPRPRPRPIDDPRP, RRIRLRPPRLPRPRPRPNYYPRP is lower in “shrunken log2 fold change” value: 0.0145 for the first, -0.773 for the second.

RRIRPRPPRLPRPRPRPKVRPRP and RRIRYRPPRLPRPRPRPQPLPRP are within 0.2 log units of each other in “shrunken log2 fold change” value: 0.161 for the first, -0.00898 for the second.

RRIRTRPPRLPRPRPRPDFPPRP and RRIRFRPPRLPRPRPRPDIMPRP are within 0.2 log units of each other in “shrunken log2 fold change” value: -0.178 for the first, -0.06 for the second.

Compared with RRIRCRPPRLPRPRPRPTITPRP, RRIRDRPPRLPRPRPRPGEAPRP is higher in “shrunken log2 fold change” value: -0.44 for the first, 1.1 for the second.

RRIRPRPPRLPRPRPRPPSRPRP and RRIRNRPPRLPRPRPRPRKIPRP are within 0.2 log units of each other in “shrunken log2 fold change” value: 0.353 for the first, 0.39 for the second.

RRIRGRPPRLPRPRPRPGWFPRP and RRIRTRPPRLPRPRPRPWVSPRP are within 0.2 log units of each other in “shrunken log2 fold change” value: 0.27 for the first, 0.137 for the second.

RRIRLRPPRLPRPRPRPDSSPRP and RRIRHRPPRLPRPRPRPCARPRP are within 0.2 log units of each other in “shrunken log2 fold change” value: 0.00161 for the first, -0.0479 for the second.

RRIRQRPPRLPRPRPRPFATPRP and RRIRRRPPRLPRPRPRPRQTPRP are within 0.2 log units of each other in “shrunken log2 fold change” value: 0.275 for the first, 0.0881 for the second.

First: RRIRKRPPRLPRPRPRPNFVPRP
Second: RRIRYRPPRLPRPRPRPHCTPRP
The “shrunken log2 fold change” value of the first is higher: 0.309 for the first, -0.372 for the second.

RRIRSRPPRLPRPRPRPHDLPRP and RRIRCRPPRLPRPRPRPAQAPRP are within 0.2 log units of each other in “shrunken log2 fold change” value: 0.0653 for the first, 0.147 for the second.

Compared with RRIRRRPPRLPRPRPRPWFVPRP, RRIRTRPPRLPRPRPRPVWKPRP is lower in “shrunken log2 fold change” value: 0.214 for the first, -0.026 for the second.

First: RRIRLRPPRLPRPRPRPGLPPRP
Second: RRIRKRPPRLPRPRPRPAHLPRP
The “shrunken log2 fold change” value of the first is higher: 0.576 for the first, -0.00667 for the second.

RRIRNRPPRLPRPRPRPVVTPRP and RRIRARPPRLPRPRPRPDTLPRP are within 0.2 log units of each other in “shrunken log2 fold change” value: -0.114 for the first, -0.0794 for the second.

RRIRARPPRLPRPRPRPQHDPRP and RRIRFRPPRLPRPRPRPHHAPRP are within 0.2 log units of each other in “shrunken log2 fold change” value: -0.117 for the first, -0.291 for the second.

Compared with RRIRLRPPRLPRPRPRPPEWPRP, RRIRPRPPRLPRPRPRPDQGPRP is lower in “shrunken log2 fold change” value: 0.682 for the first, -0.0018 for the second.

RRIRLRPPRLPRPRPRPLYEPRP and RRIRMRPPRLPRPRPRPILHPRP are within 0.2 log units of each other in “shrunken log2 fold change” value: -0.488 for the first, -0.378 for the second.

Going from RRIRFRPPRLPRPRPRPTAWPRP to RRIRGRPPRLPRPRPRPCIIPRP, the “shrunken log2 fold change” value falls from 0.618 to 0.191.

RRIRLRPPRLPRPRPRPNYIPRP and RRIRLRPPRLPRPRPRPKHNPRP are within 0.2 log units of each other in “shrunken log2 fold change” value: -0.301 for the first, -0.384 for the second.

With RRIRGRPPRLPRPRPRPSGIPRP the “shrunken log2 fold change” value was 0.0684.
